Results: publication PMC12780147

Assays:
CD127 (IL-7Rα) = CD127 (IL-7Rα) (UniProt P16871); assay: BLI
[1] = target: TGF-β1 (not stated (human TGF-β1 stated for the reporter assay only)); assay: BLI

Sequence of CD127 (IL-7Rα) (P16871 21-459): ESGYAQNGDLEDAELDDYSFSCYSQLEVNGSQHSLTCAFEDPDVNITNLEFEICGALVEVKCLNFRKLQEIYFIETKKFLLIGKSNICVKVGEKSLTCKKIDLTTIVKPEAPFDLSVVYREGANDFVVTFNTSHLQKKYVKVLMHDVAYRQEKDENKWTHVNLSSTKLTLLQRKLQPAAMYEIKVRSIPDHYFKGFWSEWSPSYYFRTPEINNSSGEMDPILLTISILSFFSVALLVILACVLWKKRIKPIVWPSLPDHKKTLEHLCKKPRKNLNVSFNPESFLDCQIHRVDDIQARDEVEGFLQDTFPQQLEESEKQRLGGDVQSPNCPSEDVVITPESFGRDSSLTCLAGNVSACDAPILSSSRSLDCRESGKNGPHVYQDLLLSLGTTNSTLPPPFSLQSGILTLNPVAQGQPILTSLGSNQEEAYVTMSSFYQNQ

- Kd (CD127 (IL-7Rα)): 6.91 nM
- Kd [1]: 0.145 nM
Substance: rhIL-7-hyFc-sTBRII (IL7-TBRII), bifunctional fusion protein (from UniProt P13232 26-177; P37173 23-166) (Fc fusion)
